Experimental data published in patent US20160108113A1 (Genentech, published 2016).
Where “and” joins values, the source holds several entries; their conditions need not be identical. Equal entries are not always repeated.

Key:
[1] = molecular target: T1, synthetic peptide corresponding to amino acid residues 105-123 in human α-synuclein (human); experiment: NMR competition, unlabeled peptide added to the Fab-α-synuclein complex
T1 construct: also called unlabeled peptide
T1 peptide: EGAPQEGILEDMPVDPDNE
Description: (§1) NMR was used to identify the binding epitope of anti-α-synuclein monoclonal antibody 13F3 and of anti-α-synuclein monoclonal antibody 1F7 as follows. NMR samples were prepared by adding a solution of ¹³C/¹⁵N labeled recombinant human α-synuclein in PBS […] at a concentration of 1 mg/ml (71 μM) purchased from Giotto Biotech (Sesto Fiorentino (FI), Italy) to a volume of 180 μl into 3 mm NMR tubes. Complex formation of the antibody bound form of α-synuclein was achieved by addition of an 18 mg/ml (120 μM) solution of antibody 13F3 and 17.8 mg/ml (118 μM) of antibody 1F7 in PBS (pH 7.2) in aliquots of 9 μl to the NMR sample. 2D HSQC-TROSY spectra were recorded at increasing concentration of Fab and the proton-amide cross peak intensity monitored in CCPN. (See Vranken et al (2005) Proteins 59:687-696.) All spectra were recorded at calibrated 300 K on a Bruker 600 MHz spectrometer using a 5 mm TXI cryo-probe. The final molar ratio used for data analysis of 1:0.5 α-synuclein:Fab. All data was processed using Topspin 3.1 (Bruker Karlsruhe, Germany) and visualized and analyzed using CCPN. Samples of ¹³C/¹⁵N labeled α-synuclein were measured in PBS (pH 7.2) buffer at 1 mg/ml corresponding to a concentration of 71 μM. […] Signal intensities were evaluated in CCPN. The signal errors were extrapolated in CCPN based on the signal to noise of the recorded data. […]

[2] = molecular target: 13C/15N labeled recombinant human α-synuclein (human, UniProt P37840 1-140); experiment: NMR 2D HSQC-TROSY, 1:0.5 α-synuclein:Fab; cutoff for epitope residues was attenuation above 50
Description: as §1

[3] = molecular target: T2, recombinant human α-synuclein (human, UniProt P37840 1-140); experiment: SPR Biacore T200, antibody captured on murine IgG capture chip, α-synuclein in solution, steady-state analysis, 25 C, Expt B
Description: (§2) Monovalent affinities of anti-α-synuclein antibodies 13F3 and 1F7 for human α-synuclein were assessed using Surface Plasmon Resonance in a Biacore T200 instrument. These experiments utilized an antibody capture format where the test antibody was immobilized by binding the test antibody to a chip pre-coated with a murine IgG capture reagent and subsequently allowed to bind α-synuclein protein in solution.
(§3) A murine IgG capture chip was prepared using the GE murine IgG capture kit according to the manufacturer's instructions. Briefly, a Series S CM5 sensor chip was activated with a mixture of EDC/NHS before exposure to a solution of capture antibody in a 10 mM sodium acetate (pH 5.0) buffer. Remaining covalent attachment sites were blocked with ethanolamine.
(§4) To assess binding, anti-α-synuclein monoclonal antibody 13F3 and anti-α-synuclein monoclonal antibody 1F7 were captured using a 1 μg/ml solution in running buffer (1×HBSP; 10 mM HEPES, pH 7.4, 150 mM NaCl, 0.05% Tween20) at a flow rate of 10 μl/min. Binding of human α-synuclein in solution was monitored at six different concentrations (a three-fold dilution series spanning concentrations from single-digit nanomolar to greater than 1 μM) and one replicate concentration, at a flow rate of 30 μl/min. […]

[4] = molecular target: T2, recombinant human α-synuclein; experiment: SPR Biacore T200, antibody captured on murine IgG capture chip, α-synuclein in solution, steady-state analysis, 25 C, Expt A
Description: as §2, §3, §4

[5] = molecular target: T2, recombinant human α-synuclein; experiment: SPR Biacore T200, antibody capture format, steady-state analysis (text summary of Table 2)
Description: as §2, §3, §4

[6] = molecular target: T3, peptide corresponding to amino acid residues 37-51 of human α-synuclein (human); experiment: peptide mapping with a series of 15-mer peptides
T3 construct: One of a series of 15-mer peptides spanning the length of human α-synuclein; also called 15-mer peptide
T3 peptide: VLYVGSKTKEGVVHG

B1: anti-α-synuclein monoclonal antibody 13F3 Fab (Fab, V domains shown)
VH: QVQLQQSGAELVKPGASVKMSCKASGYTFTSYWITWVKKRPGQGLEWIGDISPGSGSTHYNEKFKSKATLTVDTSSSTAYIQLFSLTSEDSAVYYCAIAQTTFAYWGQGTLVTVSA
VL: DVLMTQTPLSLPVSLGDQASISCRSSQSIVHSNGNTYLEWYLQKPGQSPKLLIYKVSNRFSGVPDRFSGSGSGTDFTLKISRVEAEDLGVYYCFQGSHVPPTFGGGTRLEIK
notes: also called 13F3 Fab fragment
For B1, the binding result [1] was “binds” and the “NMR signal attenuation at isoleucine 112” value [2] was 1.79 fold.

B2: anti-α-synuclein monoclonal antibody 13F3 (mIgG2a) (antibody, V domains shown)
VH: QVQLQQSGAELVKPGASVKMSCKASGYTFTSYWITWVKKRPGQGLEWIGDISPGSGSTHYNEKFKSKATLTVDTSSSTAYIQLFSLTSEDSAVYYCAIAQTTFAYWGQGTLVTVSA
VL: DVLMTQTPLSLPVSLGDQASISCRSSQSIVHSNGNTYLEWYLQKPGQSPKLLIYKVSNRFSGVPDRFSGSGSGTDFTLKISRVEAEDLGVYYCFQGSHVPPTFGGGTRLEIK
notes: Mouse monoclonal, mIgG2a, expressed recombinantly in 293 cells
For B2, the Kd [3] was 460 nM, the Kd [4] was 410 nM and 490 nM and the Kd [5] was 450 nM and 470 nM.

B3: anti-α-synuclein monoclonal antibody 1F7 (mIgG2a) (antibody, V domains shown)
VH: EVQLQQSGAELVKPGASVKLSCTASGFNIKDYYMDWVKQRTEQGLEWIARIDPEDGETKYAPKFQGKATITADTSSNTAYLQLSSLTSEDTAVYYCRVFDYWGQGTTLTVSS
VL: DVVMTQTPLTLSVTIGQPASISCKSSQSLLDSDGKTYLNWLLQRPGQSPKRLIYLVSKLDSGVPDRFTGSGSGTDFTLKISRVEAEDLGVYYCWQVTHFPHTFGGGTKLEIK
notes: as for B2
In the case of B3, the Kd [3] is reported as 160 nM, the Kd [4] is reported as 130 nM and the binding result [6] is reported as “binds”. For the same binder, the Kd [5] was 180 nM.
